In PMC9688808, “Discovery of Novel Lin28 Inhibitors to Suppress Cancer Cell Stemness” (Cancers, 2022):

T1: Lin28B ZKD (Homo sapiens, UniProt Q6ZN17 110-174)
T1 sequence: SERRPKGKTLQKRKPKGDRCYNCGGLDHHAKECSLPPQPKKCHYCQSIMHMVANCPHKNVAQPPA


Key:
Lin28B ZKD [1] = target: T1, Lin28B ZKD; test: fluorescence polarization; 1 nM probe, 1 nM-50 uM protein; dose-dependent increase; EMSA: 20 mM HEPES-NaOH pH 7.4, 2 mM DTT, 3 mM MgCl2, 0.05% NP-40, protease inhibitors, 0.1 ug poly[dI:dC], 30 min 37 C (Methods 300 nM probe, legends 10 nM); FP: 30 uL, room temperature, 20 min, buffer not stated; conditions: protein: recombinant; tags: His
Lin28B ZKD [2] = target: T1, Lin28B ZKD; test: competition; fluorescence polarization; 1 nM-50 uM unlabeled oligo vs 1 nM FAM probe, 10 uM protein; dose-dependent reduction; EMSA: 20 mM HEPES-NaOH pH 7.4, 2 mM DTT, 3 mM MgCl2, 0.05% NP-40, protease inhibitors, 0.1 ug poly[dI:dC], 30 min 37 C (Methods 300 nM probe, legends 10 nM); FP: 30 uL, room temperature, 20 min, buffer not stated; conditions: protein: recombinant; tags: His

Binder | binding result (Lin28B ZKD [1]) | binding result (Lin28B ZKD [2])
UUAGGGCACGAGAUUUUGCCCACAAGGAGUU (structured_RNA) [FAM-Let-7 probe] | binds | –
UUAGGGCACGAGAUUUUGCCCACAAGGAGUU (structured_RNA) [non-labeled Let-7 oligo (FP competitor)] | – | binds
